According to paper PMC9464622, “The collectin SP-A and its trimeric recombinant fragment protect alveolar epithelial cells from the cytotoxic and proinflammatory effects of human cathelicidin in vitro” (Frontiers in Immunology, 2022):

Tests used:
[1] = molecular target: Human surfactant protein A (native SP-A) (human) (UniProt Q8IWL2); test: native gel or EMSA + AUC + other: electron microscopy; degree of oligomerization of isolated SP-A: electrophoresis under nondenaturing conditions, electron microscopy and analytical ultracentrifugation, as reported elsewhere (refs 28, 29)
[2] = molecular target: Recombinant trimeric fragment of human SP-A1 (rfhSP-A) (human); test: other fluorescence titration; intrinsic tryptophan fluorescence of SP-A (75 nM) or rfhSP-A (52 nM) titrated with LL-37; 25°C, 5 mM Tris-HCl pH 7.4, without NaCl; excitation 295 nm; fit to the Hill equation; apparent KD
[3] = molecular target: Recombinant trimeric fragment of human SP-A1 (rfhSP-A) (human); test: other fluorescence titration; intrinsic tryptophan fluorescence of SP-A (75 nM) or rfhSP-A (52 nM) titrated with LL-37; 25°C, 5 mM Tris-HCl pH 7.4, with 150 mM NaCl; excitation 295 nm; fit to the Hill equation; apparent KD
[4] = molecular target: Human surfactant protein A (native SP-A) (human) (UniProt Q8IWL2); test: as above

| stoichiometry N [1] [subunits] | Kd [2] [nM] | Kd [3] [nM] | Kd [4] [nM] | Substance |
| --- | --- | --- | --- | --- |
| > 18 | – | – | – | Human surfactant protein A (native SP-A) (from UniProt Q8IWL2 21-248) (natural protein) |
| – | 0.0735 | 1.2 | 0.45 | Human cathelicidin LL-37 (peptide) |
